According to the Human Domainome abundance scans (Beltran et al. 2025):
± gives the uncertainty stated by the source.

Assay: abundance fitness (aPCA) (normalised: wild type 0, dead -1); higher = more abundant; growth selection in yeast, the domain comes from the species named
Conditions: Homo sapiens
Substance Transcription factor SOX-4 I89L, Q06945 has an abundance fitness of -0.098 ± 0.036. Work on Transcription factor SOX-4 I77L, Q06945 yielded an abundance fitness of -0.126 ± 0.055. In the case of “Transcription factor SOX-4 A121T, Q06945”, the abundance fitness is reported as -0.009 ± 0.06.

Same assay, conditions: Saccharomyces cerevisiae (strain ATCC 204508 / S288c)
Substance “E3 ubiquitin-protein ligase RSP5 V360W, P39940” has an abundance fitness of -0.06 ± 0.069. With “E3 ubiquitin-protein ligase RSP5 Q365A, P39940” the abundance fitness was 0.097 ± 0.044. With “E3 ubiquitin-protein ligase RSP5 D351C, P39940” the abundance fitness was -0.256 ± 0.067. For “E3 ubiquitin-protein ligase RSP5 T342N, P39940”, the abundance fitness was -0.225 ± 0.13. “E3 ubiquitin-protein ligase RSP5 F341G, P39940” showed an abundance fitness of -0.284 ± 0.044. In the case of “E3 ubiquitin-protein ligase RSP5 G329V, P39940”, the abundance fitness is reported as -0.006 ± 0.042. With “E3 ubiquitin-protein ligase RSP5 L333C, P39940” the abundance fitness was -0.428 ± 0.06. In the case of “E3 ubiquitin-protein ligase RSP5 S335H, P39940”, the abundance fitness is reported as -0.079 ± 0.066. With “E3 ubiquitin-protein ligase RSP5 F349I, P39940” the abundance fitness was -0.814 ± 0.1. Substance “E3 ubiquitin-protein ligase RSP5 H352I, P39940” has an abundance fitness of -0.046 ± 0.16. “E3 ubiquitin-protein ligase RSP5 W359L, P39940” showed an abundance fitness of -0.203 ± 0.066. “E3 ubiquitin-protein ligase RSP5 S335T, P39940” gave an abundance fitness of -0.247 ± 0.087. Substance “E3 ubiquitin-protein ligase RSP5 F341A, P39940” has an abundance fitness of -0.072 ± 0.049. With “E3 ubiquitin-protein ligase RSP5 P343H, P39940” the abundance fitness was 0.09 ± 0.082. Work on “E3 ubiquitin-protein ligase RSP5 T327N, P39940” yielded an abundance fitness of 0.12 ± 0.12. “E3 ubiquitin-protein ligase RSP5 V350D, P39940” showed an abundance fitness of -0.604 ± 0.11. “E3 ubiquitin-protein ligase RSP5 Y348E, P39940” gave an abundance fitness of -0.664 ± 0.062. With “E3 ubiquitin-protein ligase RSP5 R340H, P39940” the abundance fitness was -0.206 ± 0.22. “E3 ubiquitin-protein ligase RSP5 D351V, P39940” showed an abundance fitness of -1.24 ± 0.068. In the case of “E3 ubiquitin-protein ligase RSP5 G331K, P39940”, the abundance fitness is reported as -0.121 ± 0.046. Substance “E3 ubiquitin-protein ligase RSP5 V360N, P39940” has an abundance fitness of 0.014 ± 0.093. In the case of “E3 ubiquitin-protein ligase RSP5 G345D, P39940”, the abundance fitness is reported as -0.271 ± 0.26. Work on “E3 ubiquitin-protein ligase RSP5 V360Q, P39940” yielded an abundance fitness of -0.184 ± 0.15. In the case of “E3 ubiquitin-protein ligase RSP5 V360A, P39940”, the abundance fitness is reported as -0.161 ± 0.046. For “E3 ubiquitin-protein ligase RSP5 D351K, P39940”, the abundance fitness was -0.748 ± 0.084. Work on “E3 ubiquitin-protein ligase RSP5 T358D, P39940” yielded an abundance fitness of -0.659 ± 0.091. Substance “E3 ubiquitin-protein ligase RSP5 T356G, P39940” has an abundance fitness of -0.465 ± 0.044. “E3 ubiquitin-protein ligase RSP5 F341I, P39940” showed an abundance fitness of -0.027 ± 0.092. “E3 ubiquitin-protein ligase RSP5 W359E, P39940” gave an abundance fitness of -0.271 ± 0.071. Substance “E3 ubiquitin-protein ligase RSP5 F349Y, P39940” has an abundance fitness of 0.086 ± 0.072. With “E3 ubiquitin-protein ligase RSP5 V350Y, P39940” the abundance fitness was -0.136 ± 0.14. Work on “E3 ubiquitin-protein ligase RSP5 W337F, P39940” yielded an abundance fitness of -0.045 ± 0.093. Work on “E3 ubiquitin-protein ligase RSP5 G345Q, P39940” yielded an abundance fitness of -0.202 ± 0.08. For “E3 ubiquitin-protein ligase RSP5 N353G, P39940”, the abundance fitness was -0.132 ± 0.043. In the case of “E3 ubiquitin-protein ligase RSP5 G331V, P39940”, the abundance fitness is reported as -0.083 ± 0.047. For “E3 ubiquitin-protein ligase RSP5 R340I, P39940”, the abundance fitness was 0.002 ± 0.087. With “E3 ubiquitin-protein ligase RSP5 S335Y, P39940” the abundance fitness was -0.33 ± 0.087. Substance “E3 ubiquitin-protein ligase RSP5 R346Y, P39940” has an abundance fitness of 0.068 ± 0.079. With “E3 ubiquitin-protein ligase RSP5 S328T, P39940” the abundance fitness was -0.018 ± 0.12. With “E3 ubiquitin-protein ligase RSP5 G325V, P39940” the abundance fitness was -0.021 ± 0.045. For “E3 ubiquitin-protein ligase RSP5 A347H, P39940”, the abundance fitness was -0.048 ± 0.056. “E3 ubiquitin-protein ligase RSP5 T356C, P39940” gave an abundance fitness of 0.032 ± 0.064. Work on “E3 ubiquitin-protein ligase RSP5 L330S, P39940” yielded an abundance fitness of -0.055 ± 0.05. In the case of “E3 ubiquitin-protein ligase RSP5 G331C, P39940”, the abundance fitness is reported as -0.095 ± 0.09. Substance “E3 ubiquitin-protein ligase RSP5 R363F, P39940” has an abundance fitness of -0.805 ± 0.11. “E3 ubiquitin-protein ligase RSP5 R364H, P39940” showed an abundance fitness of 0.163 ± 0.092. For “E3 ubiquitin-protein ligase RSP5 T358L, P39940”, the abundance fitness was -0.886 ± 0.063. In the case of “E3 ubiquitin-protein ligase RSP5 N353F, P39940”, the abundance fitness is reported as -0.323 ± 0.11. “E3 ubiquitin-protein ligase RSP5 T358V, P39940” showed an abundance fitness of -0.729 ± 0.071. For “E3 ubiquitin-protein ligase RSP5 F349P, P39940”, the abundance fitness was -0.804 ± 0.08. “E3 ubiquitin-protein ligase RSP5 R355T, P39940” showed an abundance fitness of -0.257 ± 0.068. “E3 ubiquitin-protein ligase RSP5 F341T, P39940” gave an abundance fitness of 0.003 ± 0.067. Work on “E3 ubiquitin-protein ligase RSP5 P343A, P39940” yielded an abundance fitness of 0.013 ± 0.044. “E3 ubiquitin-protein ligase RSP5 T357C, P39940” gave an abundance fitness of -0.142 ± 0.065. With “E3 ubiquitin-protein ligase RSP5 S335C, P39940” the abundance fitness was -0.147 ± 0.07. “E3 ubiquitin-protein ligase RSP5 D361G, P39940” gave an abundance fitness of -0.534 ± 0.047. For “E3 ubiquitin-protein ligase RSP5 E332Y, P39940”, the abundance fitness was -0.184 ± 0.066. For “E3 ubiquitin-protein ligase RSP5 T358P, P39940”, the abundance fitness was -0.955 ± 0.067. “E3 ubiquitin-protein ligase RSP5 R355F, P39940” gave an abundance fitness of -0.057 ± 0.2. “E3 ubiquitin-protein ligase RSP5 A347M, P39940” showed an abundance fitness of 0.089 ± 0.064. In the case of “E3 ubiquitin-protein ligase RSP5 G329N, P39940”, the abundance fitness is reported as 0.1 ± 0.069. Substance “E3 ubiquitin-protein ligase RSP5 L330G, P39940” has an abundance fitness of -0.087 ± 0.043. With “E3 ubiquitin-protein ligase RSP5 W337R, P39940” the abundance fitness was -0.771 ± 0.052. For “E3 ubiquitin-protein ligase RSP5 L330R, P39940”, the abundance fitness was -0.088 ± 0.045. “E3 ubiquitin-protein ligase RSP5 Q365M, P39940” showed an abundance fitness of -0.022 ± 0.17. Substance “E3 ubiquitin-protein ligase RSP5 T326S, P39940” has an abundance fitness of 0.014 ± 0.054. With “E3 ubiquitin-protein ligase RSP5 S335M, P39940” the abundance fitness was -0.086 ± 0.063. In the case of “E3 ubiquitin-protein ligase RSP5 S335D, P39940”, the abundance fitness is reported as 0.205 ± 0.14. With “E3 ubiquitin-protein ligase RSP5 A347E, P39940” the abundance fitness was -0.034 ± 0.056. “E3 ubiquitin-protein ligase RSP5 P343G, P39940” gave an abundance fitness of -0.018 ± 0.05. For “E3 ubiquitin-protein ligase RSP5 P334V, P39940”, the abundance fitness was -0.966 ± 0.05. Work on “E3 ubiquitin-protein ligase RSP5 E344F, P39940” yielded an abundance fitness of -0.309 ± 0.072. “E3 ubiquitin-protein ligase RSP5 Q365E, P39940” showed an abundance fitness of 0.057 ± 0.059. With “E3 ubiquitin-protein ligase RSP5 G336K, P39940” the abundance fitness was -0.302 ± 0.062. Work on “E3 ubiquitin-protein ligase RSP5 Q365W, P39940” yielded an abundance fitness of 0.051 ± 0.08. In the case of “E3 ubiquitin-protein ligase RSP5 R340N, P39940”, the abundance fitness is reported as -0.089 ± 0.08. For “E3 ubiquitin-protein ligase RSP5 R364W, P39940”, the abundance fitness was -0.072 ± 0.048. “E3 ubiquitin-protein ligase RSP5 R363S, P39940” showed an abundance fitness of -0.262 ± 0.049. “E3 ubiquitin-protein ligase RSP5 G324W, P39940” gave an abundance fitness of -0.344 ± 0.086. Work on “E3 ubiquitin-protein ligase RSP5 E344I, P39940” yielded an abundance fitness of -0.215 ± 0.091. “E3 ubiquitin-protein ligase RSP5 T354L, P39940” showed an abundance fitness of -0.266 ± 0.049. Work on “E3 ubiquitin-protein ligase RSP5 Q339P, P39940” yielded an abundance fitness of -0.297 ± 0.062. In the case of “E3 ubiquitin-protein ligase RSP5 P334Q, P39940”, the abundance fitness is reported as -0.68 ± 0.056. For “E3 ubiquitin-protein ligase RSP5 P334C, P39940”, the abundance fitness was -0.746 ± 0.072. Work on “E3 ubiquitin-protein ligase RSP5 L333G, P39940” yielded an abundance fitness of -0.708 ± 0.043. For “E3 ubiquitin-protein ligase RSP5 G331R, P39940”, the abundance fitness was -0.17 ± 0.041. Work on “E3 ubiquitin-protein ligase RSP5 L333W, P39940” yielded an abundance fitness of -0.331 ± 0.052. Work on “E3 ubiquitin-protein ligase RSP5 N353I, P39940” yielded an abundance fitness of -0.083 ± 0.078. With “E3 ubiquitin-protein ligase RSP5 E338C, P39940” the abundance fitness was -0.476 ± 0.16. In the case of “E3 ubiquitin-protein ligase RSP5 G329E, P39940”, the abundance fitness is reported as 0.096 ± 0.055. With “E3 ubiquitin-protein ligase RSP5 P334E, P39940” the abundance fitness was -0.689 ± 0.056. Work on “E3 ubiquitin-protein ligase RSP5 P343K, P39940” yielded an abundance fitness of 0.102 ± 0.07. Substance “E3 ubiquitin-protein ligase RSP5 T326C, P39940” has an abundance fitness of -0.033 ± 0.07. Substance “E3 ubiquitin-protein ligase RSP5 G329A, P39940” has an abundance fitness of 0.037 ± 0.044. In the case of “E3 ubiquitin-protein ligase RSP5 Q339H, P39940”, the abundance fitness is reported as -0.134 ± 0.058. In the case of “E3 ubiquitin-protein ligase RSP5 T326I, P39940”, the abundance fitness is reported as -0.266 ± 0.2. “E3 ubiquitin-protein ligase RSP5 T357V, P39940” gave an abundance fitness of -0.247 ± 0.059. “E3 ubiquitin-protein ligase RSP5 R346K, P39940” gave an abundance fitness of 0.192 ± 0.064. In the case of “E3 ubiquitin-protein ligase RSP5 H352A, P39940”, the abundance fitness is reported as -0.236 ± 0.045. Substance “E3 ubiquitin-protein ligase RSP5 T342H, P39940” has an abundance fitness of -0.455 ± 0.3.
